{
  "source": "patent US20140301946A1",
  "about": "(Novartis, published 2014)",
  "key": {"[1]": {"biological_target": "T1, Human FGFR4 ECD (human, UniProt P22455 22-369)", "T1 construct": "whole entry is the construct; also called FGFR4 D1-D3 construct", "assay": "SPR (Biacore), assay conditions similar to those for 12425"}, "[2]": {"biological_target": "T1, Human FGFR4 ECD", "assay": "SPR (Biacore), antibody captured, FGFR ECD as analyte", "experimental": "The immobilization level and analyte interactions were measured by response unit (RU).\nSubsequently, 0.078-100 nM of FGFR receptors, diluted in a 2-fold series, were injected at a flow rate of 80 μl/min for 7 min over both reference and test flow cells. Dissociation of the binding was followed for 10 min using HBS-EP⁺ supplemented with 0.5 mg/ml of BSA and 10 μg/ml heparin as running buffer. After each injection cycle, the chip surface was regenerated with 10 mM glycine, pH 2.0 at 60 μl/min for 70 s."}, "[3]": {"biological_target": "T2, FGFR2 D2-D3 Construct (Human)", "T2 construct": "also called E. coli derived FGFR2 D2-D3 protein", "T2 chain": "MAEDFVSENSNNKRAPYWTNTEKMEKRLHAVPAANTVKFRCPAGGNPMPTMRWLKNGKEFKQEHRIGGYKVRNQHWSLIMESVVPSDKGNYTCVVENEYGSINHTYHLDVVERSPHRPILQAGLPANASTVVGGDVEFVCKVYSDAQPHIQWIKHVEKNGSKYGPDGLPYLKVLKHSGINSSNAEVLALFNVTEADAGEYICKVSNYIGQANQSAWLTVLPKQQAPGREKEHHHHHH", "assay": "HDx-MS: deuterium uptake of FGFR2 D2-D3 peptides with mAb against control without mAb [A), D00032 FIG. 19 (B]"}, "[4]": {"biological_target": "T1, Human FGFR4 ECD", "assay": "SET or Biacore, IgG"}},
  "data": [
    {"binder": "mAb 20562 (antibody, human IgG1, kappa, V domains shown) VH: EVQLLESGGGLVQPGGSLRLSCAASGFTFSDYAMSWVRQAPGKGLEWVSVIEGDASYTHYADSVRGRFTISRDNSKNTLYLQMNSLRAEDTAVYYCARERTYSSAFDYWGQGTLVTVSS VL: DIQMTQSPSSLSASVGDRVTITCRASQDISSDLNWYQQKPGKAPKLLIYDASNLQSGVPSRFSGSGSGTDFTLTISSLQPEDFATYYCQQHYSPSHTFGQGTKVEIKR", "values": [
      {"measurement": "Kd", "setting": "[1]", "value": 3.3, "unit": "nM"}
    ]},
    {"binder": "mAb 12439 (antibody, human IgG1, kappa, V domains shown) VH: QVQLVQSGAEVKKPGASVKVSCKASGYTFTSYDISWVRQAPGQGLEWMGWINPYNGGTNYAQKFQGRVTMTRDTSISTAYMELSRLRSEDTAVYYCAREGSGMIVYPGWSYAFDYWGQGTLVTVSS VL: DIQMTQSPSSLSASVGDRVTITCRASQDISNDLGWYQQKPGKAPKLLIYAASSLQSGVPSRFSGSGSGTDFTLTISSLQPEDFATYYCQQHYHTPNTFGQGTKVEIKR", "values": [
      {"measurement": "Kd", "setting": "[2]", "value": 4.3, "unit": "nM"}
    ]},
    {"binder": "mAb 20811 (antibody, human IgG1, kappa, V domains shown) VH: QVQLLESGGGLVQPGGSLRLSCAASGFTFSDYAMSWVRQAPGKGLEWVSTIEGDSNYIEYADSVKGRFTISRDNSKNTLYLQMNSLRAEDTAVYYCARERTYSSAFDYWGQGTLVTVSS VL: DIQMTQSPSSLSASVGDRVTITCRASQDISSDLNWYQQKPGKAPKLLIYDASNLQSGVPSRFSGSGSGTDFTLTISSLQPEDFATYYCHQWYSTLYTFGQGTKVEIKR", "values": [
      {"measurement": "binding result", "setting": "[3]", "value": "binds"},
      {"measurement": "Kd", "setting": "[4]", "value": 0.075, "unit": "nM"}
    ]},
    {"binder": "mAb 12422 (antibody, human IgG1, kappa, V domains shown) VH: QVQLVQSGAEVKKPGSSVKVSCKASGGTFSSYAISWVRQAPGQGLEWMGYISPYMGETHYAQKFQGRVTITADESTSTAYMELSSLRSEDTAVYYCARESYEYFDIWGQGTLVTVSS VL: DIQMTQSPSSLSASVGDRVTITCRASQSISNDLAWYQQKPGKAPKLLIYATSILQSGVPSRFSGSGSGTDFTLTISSLQPEDFATYYCLQYYDYSYTFGQGTKVEIKR", "values": [
      {"measurement": "Kd", "setting": "[2]", "value": 0.95, "unit": "nM"}
    ]}
  ]
}
